Experimental data taken from PMC12386978 (2025).

B1: NLuc-mCRY1 (wild-type) [mouse (printed as mCRY1)] / CLuc-BMAL1 [not stated] (parent complex)
chain 1: MGVNAVHWFRKGLRLHDNPALKECIQGADTIRCVYILDPWFAGSSNVGINRWRFLLQCLEDLDANLRKLNSRLFVIRGQPADVFPRLFKEWNITKLSIEYDSEPFGKERDAAIKKLATEAGVEVIVRISHTLYDLDKIIELNGGQPPLTYKRFQTLVSKMEPLEMPADTITSDVIGKCMTPLSDDHDEKYGVPSLEELGFDTDGLSSAVWPGGETEALTRLERHLERKAWVANFERPRMNANSLLASPTGLSPYLRFGCLSCRLFYFKLTDLYKKVKKNSSPPLSLYGQLLWREFFYTAATNNPRFDKMEGNPICVQIPWDKNPEALAKWAEGRTGFPWIDAIMTQLRQEGWIHHLARHAVACFLTRGDLWISWEEGMKVFEELLLDADWSINAGSWMWLSCSSFFQQFFHCYCPVGFGRRTDPNGDYIRRYLPVLRGFPAKYIYDPWNAPEGIQKVAKCLIGVNYPKPMVNHAEASRLNIERMKQIYQQLSRYRGLGLLASVPSNSNGNGGLMGYAPGENVPSCSSSGNGGLMGYAPGENVPSCSGGNCSQGSGILHYAHGDSQQTHSLKQGRSSAGTGLSSGKRPSQEEDAQSVGPKVQRQSSN
chain 2: not shown

Variants of: B1
Test: split-luciferase complementation assay; HEK293T cells, n = 3; read off a plot

chain 1 K151Q was tested. Which response did it give?
The response was ~3200.

With chain 1 K151R as the variant, how does the response read?
Its response is ~3900.
